Assay results reported in patent publication US20140255415A1 (Novartis, published 2014).
Changes are numbered by the printed parent chain.

Tests used:
Unrelated Fc = assay: ELISA, Fc fusion captured via goat anti-human IgG Fc, Fab detected with AP-conjugated secondary and AttoPhos
[1] = target: T1, human NgR-Fc fusion protein (R&D Systems) (human, UniProt Q9BZR6 27-447, limits assumed); assay: ELISA, captured Fc fusion protein
T1 construct: Commercial protein; also called captured human NgR-Fc; not shown: Fc part of the commercial fusion protein; not described
T1 sequence (looked up): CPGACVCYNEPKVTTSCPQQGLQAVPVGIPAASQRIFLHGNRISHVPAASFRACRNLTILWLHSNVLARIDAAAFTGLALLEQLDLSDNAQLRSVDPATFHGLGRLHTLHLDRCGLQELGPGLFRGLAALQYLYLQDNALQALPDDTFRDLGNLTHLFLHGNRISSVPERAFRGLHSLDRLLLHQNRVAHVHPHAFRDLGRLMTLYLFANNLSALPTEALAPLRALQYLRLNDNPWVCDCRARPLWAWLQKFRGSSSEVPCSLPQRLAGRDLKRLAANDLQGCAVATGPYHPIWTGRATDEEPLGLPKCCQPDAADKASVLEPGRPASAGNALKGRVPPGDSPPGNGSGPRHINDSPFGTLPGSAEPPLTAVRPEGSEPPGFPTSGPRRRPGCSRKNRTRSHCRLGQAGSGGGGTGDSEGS

[2] = target: T2, human LINGO-1-ΔLRR-Fc (Igleader-hsLINGO-1-ΔLRR-Fc) (human, UniProt Q96FE5 40-556); assay: ELISA, captured Fc fusion protein
T2 construct: Heterologous secretion signal left out; also called human LINGO-1 lacking the LRR domain
T2 sequence: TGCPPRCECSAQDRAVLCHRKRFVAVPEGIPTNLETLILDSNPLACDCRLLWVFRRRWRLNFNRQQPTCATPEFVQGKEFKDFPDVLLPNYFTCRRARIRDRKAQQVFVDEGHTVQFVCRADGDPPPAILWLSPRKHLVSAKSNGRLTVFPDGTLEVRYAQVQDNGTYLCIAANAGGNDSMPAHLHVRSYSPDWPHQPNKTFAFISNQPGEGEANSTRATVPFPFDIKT

[3] = target: T3, cynomolgus monkey LINGO-1 expressed on CHO-K1 cells (CHO-K1-cmLINGO-1) (cynomolgus monkey, UniProt Q9N008 34-614); assay: apparent KD, FACS saturation binding on CHO-K1-cmLINGO-1 cells, Fab format
T3 construct: range 34-614; also called Cynomolgus LINGO-1; not shown: 2 amino acid residue linker
T3 sequence (looked up): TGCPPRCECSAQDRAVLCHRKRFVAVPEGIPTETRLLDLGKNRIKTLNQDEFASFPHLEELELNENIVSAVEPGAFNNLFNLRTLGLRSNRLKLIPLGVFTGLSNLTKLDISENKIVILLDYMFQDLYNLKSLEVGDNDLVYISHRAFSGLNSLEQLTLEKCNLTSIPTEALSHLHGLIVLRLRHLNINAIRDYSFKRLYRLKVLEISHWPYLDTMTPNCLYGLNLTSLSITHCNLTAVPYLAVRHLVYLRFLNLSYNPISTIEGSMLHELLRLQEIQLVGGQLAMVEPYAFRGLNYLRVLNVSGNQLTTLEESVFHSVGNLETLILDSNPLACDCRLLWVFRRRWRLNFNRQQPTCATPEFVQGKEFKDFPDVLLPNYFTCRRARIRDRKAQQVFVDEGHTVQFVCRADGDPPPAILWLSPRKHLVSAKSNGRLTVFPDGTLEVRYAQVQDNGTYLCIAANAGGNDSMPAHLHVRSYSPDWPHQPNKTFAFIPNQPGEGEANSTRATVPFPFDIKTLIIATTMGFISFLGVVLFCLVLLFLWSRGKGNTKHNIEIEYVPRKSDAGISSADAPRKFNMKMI
Experimental: (§1) Cell based affinity of anti-LINGO-1 specific antibodies is determined by FACS saturation binding experiments. […] Otherwise the staining procedure is done identical to the FACS staining procedure described above.
(§2) In detail, CHO-K1-hLINGO-1, CHO-K1-cmLINGO-1 or CHO-K1-rLINGO-1 are detached from culture flasks by versene, washed with FACS buffer and resuspended in FACS buffer. Purified anti-LINGO-1 Fabs are serially diluted in FACS buffer and spread into round bottom 96-well microtiter plates (NUNC™, Wiesbaden, Germany). For each concentration, duplicate wells are incubated with 1.25×10⁴ cells for 30-60 min on ice in a total volume of 100 μl.

[4] = target: human LINGO-1 expressed on CHO-K1 cells (CHO-K1-hLINGO-1) (human) (UniProt Q96FE5); assay: apparent KD, FACS saturation binding on CHO-K1-hLINGO-1 cells, Fab format
[5] = target: T1, human NgR-Fc fusion protein (R&D …); assay: ELISA, Fc fusion captured via goat anti-human IgG Fc, Fab detected with AP-conjugated secondary and AttoPhos
[6] = target: T2, human LINGO-1-ΔLRR-Fc …; assay: as above
[7] = target: T4, human LINGO-1-Fc fusion protein (natleader-hsLINGO-1-Fc) (human, UniProt Q96FE5 42-556); assay: as above
T4 construct: also called human recombinant LINGO-1-Fc; captured human LINGO-1-Fc; not shown: protein lette
T4 sequence: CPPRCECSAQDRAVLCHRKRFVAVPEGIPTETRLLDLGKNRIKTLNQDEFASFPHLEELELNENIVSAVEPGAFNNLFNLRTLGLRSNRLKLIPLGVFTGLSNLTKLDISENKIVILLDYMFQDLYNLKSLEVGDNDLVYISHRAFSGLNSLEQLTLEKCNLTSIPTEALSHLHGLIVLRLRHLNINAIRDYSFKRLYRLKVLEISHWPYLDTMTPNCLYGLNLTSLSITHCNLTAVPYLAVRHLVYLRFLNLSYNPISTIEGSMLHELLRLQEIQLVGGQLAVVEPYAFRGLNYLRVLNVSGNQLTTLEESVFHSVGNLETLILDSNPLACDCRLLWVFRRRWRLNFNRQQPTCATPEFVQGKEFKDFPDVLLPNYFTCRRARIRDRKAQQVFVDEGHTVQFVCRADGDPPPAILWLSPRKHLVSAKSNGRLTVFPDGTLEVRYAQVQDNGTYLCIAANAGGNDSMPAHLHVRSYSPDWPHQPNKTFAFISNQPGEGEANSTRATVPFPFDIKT

[8] = target: T5, rat LINGO-1 expressed on CHO-K1 cells (CHO-K1-rLINGO-1) (rat, UniProt A0A8I5ZPI2 34-614); assay: apparent KD, FACS saturation binding on CHO-K1-rLINGO-1 cells, Fab format
T5 construct: range 34-614; not shown: 2 amino acid residue linker
T5 sequence: T3 sequence (looked up) with S261G, M286V, V315A, R386H, P494S
Experimental: as §1, §2

relative fluorescence units (RFU) (Unrelated Fc): 52 RFU
binding result [1]: no binding
binding result [2]: no binding
Kd [3]: 27.1 nM
Kd [4]: 14.1 nM
relative fluorescence units (RFU) [5]: 68 RFU
relative fluorescence units (RFU) [6]: 49 RFU
relative fluorescence units (RFU) [7]: 98 RFU
Kd [8]: 24 nM
B1: anti-LINGO-1 Fab 4784 (Fab, V domains shown)
VH: QVQLKESGPALVKPTQTLTLTCTFSGFSLSSSGVGVGWIRQPPGKALEWLAHIGSDDDKYYSTSLKTRLTISKDTSKNQVVLTMTNMDPVDTATYYCARNQQYGDGYPGYFDYWGQGTLVTVSS
VL: DIELTQPPSVSVAPGQTARISCSGDNIGNYYVYWYQQKPGQAPVLVIYEDTNRPSGIPERFSGSNSGNTATLTISGTQAEDEADYYCQSYDNLHEQVFGGGTKLTVLG
